The term Kd denotes the constant that tells how readily two partners part at equilibrium. By stoichiometry N is commonly meant a count of units in the complex or per binding partner.

Values joined by “and” are separate entries in the source; they are usually repeats but may differ in a detail not shown here. Identical values can stand only once.

Results on 7 molecules are retold here after publication PMC12002259, “Monomers and short oligomers of human RAD52 promote single-strand annealing” (Proceedings of the National Academy of Sciences of the …, 2023).

In data set [1] the target is T1, RAD52(209) (human, UniProt P43351 1-209).
T1 sequence: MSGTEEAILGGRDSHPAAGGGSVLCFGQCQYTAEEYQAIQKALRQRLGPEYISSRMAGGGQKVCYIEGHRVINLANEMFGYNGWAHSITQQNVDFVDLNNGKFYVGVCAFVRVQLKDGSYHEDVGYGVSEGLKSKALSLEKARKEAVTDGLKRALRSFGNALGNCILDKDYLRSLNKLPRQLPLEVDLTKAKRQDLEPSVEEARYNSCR
As to the kind of experiment: mass photometry; 100 nM protein, 10 nM DNA; ring shift 40 ± 4 kDa; EMSA: 25 mM Tris-acetate, 2 mM Mg(OAc)2, 1 mM DTT, pH 7.5, 10 nM ssDNA, 25 C 10 min or 37 C 5 min; mass photometry: 20 mM Tris-HCl, 50 mM NaCl, pH 7.5. Conditions: protein: recombinant; tags: His-tag (pET-15b); chain copies: 11.

Data set [2] deals with the molecule itself. As to the kind of experiment: mass photometry; concentration series 10 to 200 nM protein, cumulative histograms from four measurements; Buffer 1 (20 mM Tris-HCl, 50 mM NaCl, pH 7.5); linear fits and a global fit of noncooperative (isodesmic) assembly coupled with preferential cyclization; Kd is that of a monomer associating with an oligomer of n subunits.

Data set [3] deals with the molecule itself. In words: mass photometry; single 60-s reading at 200 nM protein, label-free, adsorbed on glass; Buffer 1 (20 mM Tris-HCl, 50 mM NaCl, pH 7.5); stock diluted to 1 uM, then to the final concentration, measured directly after dilution; size of the oligomers.
Data set [4] concerns the target T1, RAD52(209). In words: mass photometry; 100 nM protein, 10 nM DNA; ring shift 32 ± 2 kDa; EMSA: 25 mM Tris-acetate, 2 mM Mg(OAc)2, 1 mM DTT, pH 7.5, 10 nM ssDNA, 25 C 10 min or 37 C 5 min; mass photometry: 20 mM Tris-HCl, 50 mM NaCl, pH 7.5. Conditions: protein: recombinant; tags: His-tag (pET-15b); chain copies: 11.
Data set [5] deals with T2, RAD52 full length (human, UniProt P43351 1-418).
T2 sequence: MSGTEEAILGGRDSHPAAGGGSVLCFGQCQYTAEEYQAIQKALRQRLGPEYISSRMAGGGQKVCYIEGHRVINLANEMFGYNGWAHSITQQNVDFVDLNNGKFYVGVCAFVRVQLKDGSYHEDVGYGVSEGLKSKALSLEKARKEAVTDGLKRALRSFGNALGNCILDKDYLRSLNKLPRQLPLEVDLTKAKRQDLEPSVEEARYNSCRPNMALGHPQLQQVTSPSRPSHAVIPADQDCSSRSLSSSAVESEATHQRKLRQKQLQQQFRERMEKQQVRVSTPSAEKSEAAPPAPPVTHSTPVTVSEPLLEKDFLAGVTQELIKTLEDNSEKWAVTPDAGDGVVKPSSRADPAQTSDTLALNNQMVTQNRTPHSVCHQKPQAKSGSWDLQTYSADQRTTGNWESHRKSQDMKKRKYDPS
In words: EMSA; 37 C; Hill 2.7 ± 0.2; EMSA: 25 mM Tris-acetate, 2 mM Mg(OAc)2, 1 mM DTT, pH 7.5, 10 nM ssDNA, 25 C 10 min or 37 C 5 min; mass photometry: 20 mM Tris-HCl, 50 mM NaCl, pH 7.5. The note with it: protein: recombinant; tags: His-tag (pET-15b). A general note: In EMSA bound probe runs differently from free probe, usually more slowly.

Data set [6] deals with T2, RAD52 full length. As to the kind of experiment: EMSA; 25 C; Hill 1.4 ± 0.2; EMSA: 25 mM Tris-acetate, 2 mM Mg(OAc)2, 1 mM DTT, pH 7.5, 10 nM ssDNA, 25 C 10 min or 37 C 5 min; mass photometry: 20 mM Tris-HCl, 50 mM NaCl, pH 7.5. Conditions: protein: recombinant; tags: His-tag (pET-15b).
For data set [7], the target named is T1, RAD52(209). In words: EMSA; 25 C; Hill 1.5 ± 0.2; EMSA: 25 mM Tris-acetate, 2 mM Mg(OAc)2, 1 mM DTT, pH 7.5, 10 nM ssDNA, 25 C 10 min or 37 C 5 min; mass photometry: 20 mM Tris-HCl, 50 mM NaCl, pH 7.5. The note with it: protein: recombinant; tags: His-tag (pET-15b); chain copies: 11.
The target in data set [8] is T1, RAD52(209). In words: EMSA; 37 C; Hill 3.1 ± 0.5; EMSA: 25 mM Tris-acetate, 2 mM Mg(OAc)2, 1 mM DTT, pH 7.5, 10 nM ssDNA, 25 C 10 min or 37 C 5 min; mass photometry: 20 mM Tris-HCl, 50 mM NaCl, pH 7.5. Conditions: protein: recombinant; tags: His-tag (pET-15b); chain copies: 11.
The target in data set [9] is T1, RAD52(209). As to the kind of experiment: EMSA; 25 C; Hill 1.6 ± 0.3; EMSA: 25 mM Tris-acetate, 2 mM Mg(OAc)2, 1 mM DTT, pH 7.5, 10 nM ssDNA, 25 C 10 min or 37 C 5 min; mass photometry: 20 mM Tris-HCl, 50 mM NaCl, pH 7.5. The note with it: protein: recombinant; tags: His-tag (pET-15b); chain copies: 11.
For data set [10], the target named is T2, RAD52 full length. As to the kind of experiment: EMSA; 25 C; Hill fixed at 1; EMSA: 25 mM Tris-acetate, 2 mM Mg(OAc)2, 1 mM DTT, pH 7.5, 10 nM ssDNA, 25 C 10 min or 37 C 5 min; mass photometry: 20 mM Tris-HCl, 50 mM NaCl, pH 7.5. Conditions: protein: recombinant; tags: His-tag (pET-15b).
Data set [11] addresses T1, RAD52(209). In words: EMSA; 37 C; Hill 4.1 ± 0.4; EMSA: 25 mM Tris-acetate, 2 mM Mg(OAc)2, 1 mM DTT, pH 7.5, 10 nM ssDNA, 25 C 10 min or 37 C 5 min; mass photometry: 20 mM Tris-HCl, 50 mM NaCl, pH 7.5. Conditions: protein: recombinant; tags: His-tag (pET-15b); chain copies: 11.
Data set [12] has as its target T2, RAD52 full length. In words: EMSA; 37 C; Hill 3.3 ± 0.2; EMSA: 25 mM Tris-acetate, 2 mM Mg(OAc)2, 1 mM DTT, pH 7.5, 10 nM ssDNA, 25 C 10 min or 37 C 5 min; mass photometry: 20 mM Tris-HCl, 50 mM NaCl, pH 7.5. The note with it: protein: recombinant; tags: His-tag (pET-15b).

B1: 83 nt (ssDNA)
DNA: TTTATATAATTTACTTTATTTTCTATGTCTATTCATTTACTTATTGTGTATTATCCTTATACTTACTTACTTTATGTTTATTT
Turning to B1, in the data set with RAD52(209) [1], the binding result is given as “binds”.

B2: full-length human RAD52 (natural protein, UniProt P43351 1-418, looked up)
chain: MSGTEEAILGGRDSHPAAGGGSVLCFGQCQYTAEEYQAIQKALRQRLGPEYISSRMAGGGQKVCYIEGHRVINLANEMFGYNGWAHSITQQNVDFVDLNNGKFYVGVCAFVRVQLKDGSYHEDVGYGVSEGLKSKALSLEKARKEAVTDGLKRALRSFGNALGNCILDKDYLRSLNKLPRQLPLEVDLTKAKRQDLEPSVEEARYNSCRPNMALGHPQLQQVTSPSRPSHAVIPADQDCSSRSLSSSAVESEATHQRKLRQKQLQQQFRERMEKQQVRVSTPSAEKSEAAPPAPPVTHSTPVTVSEPLLEKDFLAGVTQELIKTLEDNSEKWAVTPDAGDGVVKPSSRADPAQTSDTLALNNQMVTQNRTPHSVCHQKPQAKSGSWDLQTYSADQRTTGNWESHRKSQDMKKRKYDPS
notes: RAD52, human, full length; Expressed from pET-15b (plasmid a gift of W. Kagawa); No tag cleavage is described; The entry describes the protomer; the oligomer size varies with concentration; source: E. coli BL21(DE3) with pRARE, purified (Ni-NTA, size-exclusion chromatography)
In data set [2], B2 came in with a Kd of 14 ± 2 nM. The “stoichiometry N” value in [2] is 10.6 protomers per ring and 7 protomers to 13 protomers (2×); in data set [3], 8 protomers to 12 protomers (2×) and 10.

Turning to GCAATTAAGCTCTAAGCCATCCGCAAAAATGACCTCTTATCAAAAGGA (ssDNA) [48 nt unlabeled], in the data set with RAD52(209) [4], the binding result is on record as “binds”.

Take GCTCTAAGCCATCCGCAAAAATGACCTCTTAT (ssDNA) [32 nt]: the Kd is 135 ± 4 nM with RAD52 full length [5], 115 ± 22 nM with RAD52 full length [6], 169 ± 24 nM with RAD52(209) [7] and 246 ± 33 nM in the data set with RAD52(209) [8].

B3: RAD52(209), human RAD52 truncated after amino acid 209 (domain or fragment, UniProt P43351 1-209, looked up)
chain: MSGTEEAILGGRDSHPAAGGGSVLCFGQCQYTAEEYQAIQKALRQRLGPEYISSRMAGGGQKVCYIEGHRVINLANEMFGYNGWAHSITQQNVDFVDLNNGKFYVGVCAFVRVQLKDGSYHEDVGYGVSEGLKSKALSLEKARKEAVTDGLKRALRSFGNALGNCILDKDYLRSLNKLPRQLPLEVDLTKAKRQDLEPSVEEARYNSCR
notes: Expressed from pET-15b (plasmid a gift of S. C. West); No tag cleavage is described; The entry describes the protomer; also called C-terminally truncated RAD52; source: E. coli BL21(DE3) with pRARE, purified (Ni-NTA, size-exclusion chromatography)
For the molecule B3, in data set [3], the “stoichiometry N” value was 11.

B4: 70 nt (ssDNA)
DNA: TTTAATAATTTACTTTATTTTCTATGTCTATTCATTTACTTATTGTGTATTATCCTTATACTTACTTAC
Consider B4, for which the figures for the Kd with RAD52(209) [9] and with RAD52 full length [10] were 109 ± 23 nM and 53 ± 8 nM, respectively.

B5: 60 nt (ssDNA)
DNA: TCCTTTTGATAAGAGGTCATTTTTGCGGATGGCTTAGAGCTTAATTGCTTTTTTTTTTTT
Turning to B5, the values for the dissociation constant (Kd) with RAD52(209) [11] and in the data set with RAD52 full length [12] were 127 ± 10 nM and 112.4 ± 0.1 nM, respectively.
